The source of these data is patent US5908756.

The target in this assay is neuronal nitric oxide synthase (nNOS) expressed in transfected HEK 293 cells (rat).

Chain of thrombin-cleaved PIN-1 (P61273 whole entry): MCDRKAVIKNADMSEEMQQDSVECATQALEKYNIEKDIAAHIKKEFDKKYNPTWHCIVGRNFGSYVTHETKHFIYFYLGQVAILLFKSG

“glutathione-S-transferase (GST)-PIN-1 fusion protein” gave a 50% inhibition of NOS activity of 1 µM.
To thrombin-cleaved PIN-1 belongs 5000 µM.
